# According to the domain aggregation screens of Martell et al. (2025):
# Test: soluble fraction after stress (log2 fold change); higher = more stays soluble; pooled small domains, quantitative proteomics
# Details: stress: 50 degC
# Outline: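 The stress applied to every library was 50°C. These custom libraries of small protein domains were pooled and measured at high throughput with quantitative proteomics as the read-out. Aggregation propensity is expressed as the base-two logarithm of the fold change in how much of each protein remains soluble. The higher the value, the more of that protein stays in solution.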
row,Sequence,soluble fraction (log2)
1,HMSMDAVSLANRLLRFFQKRPGRKFTAADLAFETGMNERTGKSLVTSALEILSRTNQIEADGDGFRLKM,0.138
2,HMLDQAVPVFETPKYAVSYIQNRLVEMKAASPEEAASRFYESISESERRGLFEALLIKEAEES,-0.00154
3,HMTSFDVMLKSAGANKLAVVKLVKELTGLGLKEAKDIVDAAPSKVKEGVSKEEAEELQKQLTGAGAEVEL,0.0299
4,HMSDAQIKASINDLWFKYNLETFAKLNLNVNQGRVLVTGIVQNPEHRLEAIRLVWTVDGVQQVINEIQVAE,-0.795
5,HMSVPSLVGKTDSEAQSAIKSAGLKVGTVTYQYSDETEKGYVVSQSPYSGNKVNAGSTVNIVVSKGK,-0.0367
6,HMQPTVEGLMKALETMTFNERTALALHYGLTGRQPMTFMAIGRYLGISDGRAEALVNSAIRKLR,-1.43
7,HMVERQVTVPNLTGLGVADAQRLAQSMELDIEVLGEQESTDARPGAVLQQTPGAGTRAAAGSVVSVLV,0.0752
8,HMQDFEEILKNAKIEDFKHTQTGEDLKVLKIEDKIEDFKGFNAYLVKNQIAYYSKFARGFVVKNIEKLQGV,0.0429
9,HMRVSNADALIGRRGKANSDIRRGDYGWVAIDGDVWKSKLADDITEDIPMGAIVEVLSRDSIILTVKP,-0.324
10,HMGKHYLLKDDNGTITIYKILEDGTQEVYEKTEISTTYLPQTDNIGIKQGIRVNGDEALNELIENF,-0.0212
11,HMLAVEKIEFVGNERIAAADLESALSALYDRPMTTISDDEIAKLLSGFSLIETFTSQAEPPHTLRVNIRE,-0.141
12,HMSSGKTGTITLQPKQTVYGITKQYKISEADLRKLNPQLDSNLKIGDKITLPLDNIQRYSDSSSNVAQT,0.211
13,HMSFGFFELKSSDTDKLFAYLNNNEHFGNIKEENGLVTAFLTSELDAQTLNKLLFDNGIIASHLVKRK,-0.51
14,HMGVDASVDSKLDLLSQVLDSDQVKEQLPEAVLEQLAQNLDRWRSLHEESELQDDDIAELNRLLGLFGLG,0.0425
15,HMKEEVMVPNVVGKELSAALLEMQVKELYPKLQLKYSNFVDDKGTVLEQSPPAGSIVKAGRRINLVVSRGA,0.144
16,HMADLPQATALADVKGDVQMQGIQFGYDPEKIIIHDLNLHARPGSLVAIVGPTGAGKTTIINLLMRFYD,-0.313
17,HMPRVLSSYTLTLRHQPTAEAVALVRTLLSPAGSVEVKEDGRTLVVRDELAALSRIVGALRSFDH,-0.404
18,HMKNINTNIGKNLKRIRKLRGLTIDALATSSGVSKSMISEIERGIRNPSITIIWSLANALKTPLNYFLKE,-0.115
19,HMSYEDLIQAVSGHFGIEIRALLSEDRKKENMIPRQVAMYLLKNKLHYTYERIGNIFSGRNHTAVMYSV,-0.193

row,Sequence,soluble fraction (log2)
1,HMYVKKSSFVKKSLNNYEFKITDNTNDLLIFYKGMLPDLFREEQGIVVEGLIDKNNNIVASKV,-0.0872
2,HMQFLKPQDVLFLLKLVVLKGPASIFPAVPESLGLSKAEVHNSAKRVRGARLLPHDSWNPLRKNLLEFL,-0.148
3,HMYPQLIGFKVIDEDKGEVGVVKEVSESMHQILLTVMKGKKEILIPLAEEFITKVNRHKKELFMVLPDG,0.502
4,HMVFTEEEMLEKIKEYLSTNSYINRRAMETLFNLRQSTALKWLGHFTEIGVLRKEGERNYPVYFLNN,-0.296
5,HMPAFGALTLRQRDLVELIAQGLDNSQIAARLGLAEKTVRNHITMIFNKLEMENRSQVIVRARESGFGAVR,-1.53
6,HMLSKEFRFFTYLLESYAQHKNTTAGAVLKTLDEKGLTDFVYKMYDLYHVEAIENAYMDLDSLIATGKPA,-2.98
7,HMNEDFSEIIAAVKKFAVDNLSLSTLSDEELEEQIKTITDNMIGNRYVSIKNRVDIAQQVFSSIR,-0.0581
8,HMPAAFALLTDREREIAALIAQRLTNREIAEKLYLSEGSVKQYVNQLYAKLGIEGDTRTKRRRLAEQAK,0.11
9,HMTSMNNTEELIDMANKIIDNNPNMVLKYKEGRNVLDFFIGQVMKETKGRANPSATSKIFKDLLEK,0.169
10,HMGPLDIAQLKSDFLGGDAQLARRAWDQLATKAGDEGRDFLISSLGSSDPQIRNRVALGIHES,0.0489
11,HMLPELQPGQTFSARIQQALPDNTYRALVAGKQLTLQLPEGAKAGDELELVVLDRSARVIIARQVD,-0.146
12,HMSVKTIRKTEFAKRLYSLMLEKNWNQSDLARASGMGRDSVSQYIRANNTPSPQNLKKLAEALGVEPVELY,-1.3
13,HMDFPYISGIEIAAIKNREFIRIETDKAQEIAIALDKSGIPFSARFSDAEMVLTYDGSYKEQVEDIIAKA,-0.0417
14,HMNSLGYSDFVVDVQNERVASVVIEGLIINGERRDGTKFRTVLPTIGDQRLMDDLINHNVKVLARE,0.236
15,HMVSVEINTVERDETFRKMFTSGWKPENRIQALAVEQAKKNGLGRMSEVAGLASFRGIWKQATEQVALEA,-0.12
16,HMREEQELFRKLLEVNGIGPKVAAGMLAGGRPEDVVSAIRREDVAWLTKLPGIGRKTAQRIVLDLKDKLD,-0.0754
17,HMRSIMAVSNYRHKKILEMVYQRKSVSADELAAEFGVSKITIRRDLDTLAMDKLLERTRGGAISISD,-2.67
18,HMNMPDVTVEWVKEQQAKFGLTDSDLAKSVNIDNANLARIFNQRGLTKIHKALFYYFFRAYGLQ,-2.4
